Our source for the Kd values is patent US20220089705A1.

Experiment [1] addresses aP2 (species not stated in the passage) (Homo sapiens (Human)) (UniProt P15090). Description: SPR and Octet ranking of H3 variants; value of the parent H3; species of aP2 not stated. For orientation: Biolayer interferometry detects binding as a change in optical thickness at a sensor tip.
Experiment [2] has the same target. The experiment in a line: column head 'Affinity'; assay and aP2 species not printed on the sheet (the two other values of the column, 6.03 and 5.82 µM, equal the human aP2 averages of FIG. 31).

B1: H3, mouse anti-aP2 monoclonal antibody (H3 gL1/gH1) (antibody, V domains shown)
VH: QVQLQQPGAELVKPGASVKLSCKASGYTFTSNWITWVKQRPGQGLEWIGDIYPGSGSTTNNEKFKSKATLTVDTSSSTAYMQLSSLTSEDSAVYYCARLRGYYDYFDFWGQGTTLTVSS
VL: EVVLTQSPALMAASPGEKVTITCSVSSSISSSNLHWYQQKSETSPKPWIYGTSNLASGVPVRFSGSGSGTSYSLTISSMEAEDAATYYCQQWSHYPLTFGAGTKLELK
By Kd is commonly meant the free concentration of one partner at which half of the binding sites on the other are occupied at equilibrium, for simple one-to-one binding. Consider B1, for which the Kd in experiment [1] was less than 0.07 µM.

B2: CA33, rabbit-mouse hybrid anti-aP2 monoclonal antibody (Rabbit Ab 909) (antibody, V domains shown)
VH: QSVEESGGRLVTPGTPLTLTCTVSGFSLSTYYMSWVRQAPGKGLEWIGIIYPSGSTYCASWAKGRFTISKASTTVDLKITSPTTEDTATYFCARPDNDGTSGYLSGFGLWGQGTLVTVSS
VL: DVVMTQTPASVSEPVGGTVTIKCQASEDISRYLVWYQQKPGQPPKRLIYKASTLASGVPSRFKGSGSGTDFTLTISDLECDDAATYYCQCTYGTYAGSFFYSFGGGTEVVVE
In experiment [2], B2 returned a Kd of 6.5 µM.
